Laboratory results reported in article doi:10.1101/2023.08.24.554544 (2023).

Columns and labels:
[1] = biological target: T1, aster yellows witches'-broom phytoplasma SAP05 (AYWB_SAP05), mature, 33-135 (Aster Yellows phytoplasma strain …, UniProt Q2NK94 33-135); assay: SPR
T1 chain: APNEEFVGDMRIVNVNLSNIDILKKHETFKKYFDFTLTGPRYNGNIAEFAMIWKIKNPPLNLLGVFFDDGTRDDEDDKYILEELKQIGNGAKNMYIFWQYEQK

[2] = biological target: V-shape-GSGS-C-ter peptide (fused V-shape and C-ter peptide of SAP05, linked by the GSGS linker) (UniProt Q2NK94); assay: SPR

B1: GST-tagged homo sapiens Rpn10 (hRpn10) vWA (1-193aa) (domain or fragment)
chain: MVLESTMVCVDNSEYMRNGDFLPTRLQAQQDAVNIVCHSKTRSNPENNVGLITLANDCEVLTTLTPDTGRILSKLHTVQPKGKITFCTGIRVAHLALKHRQGKNHKMRIIAFVGSPVEDNEKDLVKLAKRLKKEKVNVDIINFGEEEVNTEKLTAFVNTLNGKDGTGSHLVTVPPGPSLADALISSPILAGEG
Question: How did the Kd [1] turn out when B1 was run?
Answer: ~149 µM

B2: GST-tagged A. thaliana Rpn10 (AtRpn10) vWA domain (domain or fragment)
chain: VLEATMICIDNSEWMRNGDYSPSRLQAQTEAVNLLCGAKTQSNPENTVGILTMAGKGVRVLTTPTSDLGKILACMHGLDVGGEINLTAAIQIAQLALKHRQNKNQRQRIIVFAGSPIKYEKKALEIVGKRLKKNSVSLDIVNFGEDDDEEKPQKLEALLTAVNNNDGSHIVHVPSGANALSDVLLSTPVFTG
Question: With B2 as the binder, how does the koff [2] read?
Answer: 0.0115 s⁻¹
